Consider 10 molecules from US20240294670A1 (University of Texas, published 2024).

Experiment [1] deals with T1, recombinant human CHI3L1 (human, UniProt P36222 22-383).
T1 construct: His-tagged recombinant protein (Sino Biological 11227-H08H, or in-house HEK293 protein with 6xHIS-tag and avi-tag); also called hCHI3L1; hChi3l1
Kind of experiment: Octet BLI.

Experiment [2] has as its target T1, recombinant human CHI3L1. Kind of experiment: BLI (Octet), mAb on protein A sensor, CHI3L1 in solution, 1:1 fit. The procedure:
(§1) FIG. 8. Kinetic binding sensorgrams collected on Octet instrument for determination of kon and koff rates for each CHI3L1 antibody.
(§2) Binding affinity of anti-CHI3L1 monoclonal antibodies determined using Bio-layer interferometry (BLI), a sensor-based Octet instrument. […] Following by kinetics buffer washing to baseline, the loaded biosensors were exposed to a series of recombinant CHI3L1 protein at 0.1-200 nM range and background subtraction was used to correct for any background from sensor drifting. All experiments were performed with shaking at 1,000 rpm. Background wavelength shifts were measured from reference biosensors that were loaded with antibody and followed with buffer without antigen. ForteBio's data analysis software was used to fit the data to a 1:1 binding model to extract an association rate and dissociation rate. The KD was calculated using the ratio of koff/kon and the estimated values of KD for CHI3L1 mAbs in Table C.

For experiment [3], the target named is T2, recombinant mouse CHI3L1 (mouse, UniProt Q61362 30-389, limits assumed).
T2 construct: His-tagged; also called mCHI3L1; mChi3l1
The description is as above. The method, then: as §1, §2

Experiment [4] deals with T2, recombinant mouse CHI3L1. Kind of experiment: Octet BLI.
The target in experiment [5] is T1, recombinant human CHI3L1. Description: ELISA: human CHI3L1 coated on the plate, B cell culture supernatant 100 ul/well, A450. The method, then: (§3) FIG. 7. The ELISA binding of the supernatant antibody to the human CHI3L1. (hCHI3L1), and mouse CHI3L1 (mCHI3L1). The CHI3L1 protein was coated on maxi-sorp 96-well plates, cell culture supernatant (100 ul/well) was used for binding on the antigen coated plate. Binding signals (A450 nm) are shown in Y-axis and CHI3L1 mAbs are shown on X-axis.
(§4) Binding affinity of anti-CHI3L1 monoclonal antibodies to the CHI3L1 protein using ELISA method. Binding of CHI3L1 by monoclonal antibodies was first screened by ELISA using supernatants collected from the B cell cultures and cross reactivity to mouse CHI3L1 protein was determined (FIG. 7).

Experiment [6] addresses T2, recombinant mouse CHI3L1. Kind of experiment: ELISA: mouse CHI3L1 coated on the plate, B cell culture supernatant 100 ul/well, A450. The procedure: as §3, §4

T2 sequence (Q61362 30-389 limits assumed): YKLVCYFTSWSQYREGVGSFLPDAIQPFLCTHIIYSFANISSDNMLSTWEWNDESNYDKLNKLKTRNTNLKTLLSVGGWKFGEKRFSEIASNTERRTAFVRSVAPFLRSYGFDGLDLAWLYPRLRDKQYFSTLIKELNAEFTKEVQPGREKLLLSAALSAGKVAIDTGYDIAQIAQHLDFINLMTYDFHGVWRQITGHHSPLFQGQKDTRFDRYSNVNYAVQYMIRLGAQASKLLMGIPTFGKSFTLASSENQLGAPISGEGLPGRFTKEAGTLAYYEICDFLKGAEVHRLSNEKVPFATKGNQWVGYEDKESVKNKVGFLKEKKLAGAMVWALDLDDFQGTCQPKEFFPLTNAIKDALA
T1 sequence (P36222 22-383 limits assumed): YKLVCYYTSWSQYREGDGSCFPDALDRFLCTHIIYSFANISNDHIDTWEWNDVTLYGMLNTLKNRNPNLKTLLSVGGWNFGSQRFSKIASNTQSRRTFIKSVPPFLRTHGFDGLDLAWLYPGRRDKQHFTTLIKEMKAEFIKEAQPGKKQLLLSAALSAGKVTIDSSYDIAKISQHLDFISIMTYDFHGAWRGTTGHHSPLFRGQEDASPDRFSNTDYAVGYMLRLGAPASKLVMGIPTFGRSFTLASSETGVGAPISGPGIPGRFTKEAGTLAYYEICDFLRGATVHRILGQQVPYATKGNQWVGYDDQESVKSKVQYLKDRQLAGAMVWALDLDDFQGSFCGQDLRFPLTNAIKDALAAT

B1: humanized C7 antibody C7Hu (antibody, V domains shown)
VH: QVQLVESGGGVVQPGRSLRLSCAASGFTLTTYWVCWVRQAPGKGLEWVACIDAGSITYYTTWARGRFTISRDNSTNTLFLQMNSLRAEDTAVYYCARDAHYTYALVLWGRGTLVTVSS
VL: DIQMTQSPSSVSASVGDRVTIKCQASEDIESYLAWYQQKPGKAPKLLIYDASDLASGVPSRFSGSGSGTDFTLTISSLQPEDAATYYCQGYSYGSSYVGFGGGTKVEIK
notes: Humanized form of C7
In the case of B1, in the experiment with recombinant human CHI3L1 [1], the dissociation constant Kd was 0.88 nM, the koff turned out to be 0.000492 s⁻¹ and the kon came to 559000 M⁻¹ s⁻¹.

B2: anti-CHI3L1 monoclonal antibody C53 (antibody, V domains shown)
VH: QEQLVESGGDLVKPGASLTLTCTASGFSFSSSHYMCWVRQAPGKGLEWIACIYLGDDSTYYASWVNGRFSISKTSSTTVTLQMTSLTAADTATYFCARHGYNLAIHNYIIWGPGTLVTVSS
VL: DVVMTQTPSSVEAGVGGTVTIKCQASESSSRHLSWYQQKPGQRPKLLIYWASTLASGVPSRFQGSGSGTEFTLTISDLECADAATYYCQSYYGLSNNGWRYAFGGGTEVVVK
notes: Rabbit mAb from single B cells, expressed as full length IgG in HEK293
Take B2: in the experiment with recombinant human CHI3L1 [2], the Kd was below 0.001 nM, the koff is below 1e-07 s⁻¹ and the kon amounted to 137000 M⁻¹ s⁻¹. In the experiment with recombinant mouse CHI3L1 [3], the dissociation constant (Kd) came to 3.54 nM, the koff worked out at 0.000273 s⁻¹ and the kon amounted to 77300 M⁻¹ s⁻¹.

B3: humanized C59 antibody C59Hu (antibody, V domains shown)
VH: EVQLVESGGGLVQPGGSLRLSCAASGFTISSDYYMCWVRQAPGKGLEWIGCIYIGSGTDTYYADSVKGRFTISKHNSKNTLYLQMTSLRAEDTAVYYCARDKGWSNAWGFYFQLWGQGTLVTVSS
VL: DIQMTQSPSSLSASVGDRVTITCQASQSIGKYLNWYQQKPGKAPKLLIYSSSSLASGVPSRFSGSGFGTDFTLTISSLQPEDFATYYCQQGYSYVDLENGFGGGTKVEIK
notes: Humanized form of C59
Take B3: in the experiment with recombinant human CHI3L1 [1], the Kd came out at 4.5 nM, the off-rate (koff) was 0.000635 s⁻¹ and the kon turned out to be 141000 M⁻¹ s⁻¹. Moreover, in the experiment with recombinant mouse CHI3L1 [4], the Kd turned out to be 4.44 nM, the koff was found to be 0.00095 s⁻¹ and the on-rate (kon) stood at 214000 M⁻¹ s⁻¹.

B4: anti-CHI3L1 monoclonal antibody C29 (antibody, V domains shown)
VH: QEQLVESGGDLVKPEGSLTLTCTASGFSFSDNYWMCWVRQAPGKGLEWIGCIYIGFSGTTYYASWAKGRFTISKASSTTVTLQMTSLTGADTATYFCARGVFYVGSGYWYYLNLWGPGTLVTISS
VL: DVVMTQTPSSVSAAVGGTVTIKCQASQSIASYLAWYQQKPGQPPKLLIYRASTLASGVPSRFKGSGSGTEYTLTISDLECADAATYYCQTTYVGGSGNAFGGGTKVEIK
notes: Rabbit mAb
As for B4, the binding result with recombinant human CHI3L1 [5] was “binds”; with recombinant mouse CHI3L1 [6], “no binding”.

B5: anti-CHI3L1 monoclonal antibody C25 (antibody, V domains shown)
VH: QSVEESGGDLVKPGASLTLTCTASGFSFSSSYYMCWVRQAPGKGLEWIACIYAGSSGSTWYASWAKGRFTISITSSTTVTLQMTSLTAADTATYFCARDRYGGGSYYIPYYFDLWGPGTLVTVSS
VL: ALVMTQTPSPVSAAVGGTVTINCQASQNIYVDSYLAWYQQKSGQPPKLLIYYASSLASGVPSRFSGSGSGTQFTLTISDLECDDAATYYCAGGYSADSDNAFGGGTEVVVK
notes: Rabbit mAb
With B5, the binding result is recorded as “binds” with recombinant human CHI3L1 [5] and “no binding” in the experiment with recombinant mouse CHI3L1 [6].

B6: anti-CHI3L1 monoclonal antibody C27 (antibody, V domains shown)
VH: QSVEESGGGLVKPEGSLTLTCTASGFSFSYRYYMCWVRQAPGKGLEWIGCIDNGDGDTYYASWVNGRFTISKASSTTVTLQMTSLTAADTATYFCARGSSGYNGFNFWGPGTLVTVSS
VL: ALVMTQTPASVSAAVAGTVTIKCQASQSIGSYLAWYQQKPGQPPKLLIYATSILASGVSSRLKGSRSGTEYTLTISDLECADAATYYCQCGYYDSNYGGAFGGGTEVVVK
notes: Rabbit mAb
For the molecule B6, the values for the binding result with recombinant human CHI3L1 [5] and with recombinant mouse CHI3L1 [6] were “binds” and “no binding”, respectively.

B7: anti-CHI3L1 monoclonal antibody C59 (antibody, V domains shown)
VH: QSVEESGGDLVKPGASLTLTCTASGFTISSDYYMCWVRQAPGKGLEWIGCIYIGSGTDTYYASWAKGRFTISKTSSTTVTLQMTSLTAADTATYFCARDKGWSNAWGFYFQLWGPGTLVTVSS
VL: DPVLTQTPASVEVPVGGTVTINCQASQSIGKYLNWYQQKPGQPPKLLIYSSSSLASGVSSRFKGSGFGTQFTLTISGVQCADAATYYCQQGYSYVDLENGFGGGTELEIL
notes: Rabbit mAb from single B cells, expressed as full length IgG in HEK293; also called clone 59; C59mAb
With B7, in the experiment with recombinant human CHI3L1 [2], the Kd came out at 1.42 nM, the koff is 0.000235 s⁻¹ and the kon was 166000 M⁻¹ s⁻¹. In the experiment with recombinant mouse CHI3L1 [3], the dissociation constant Kd turned out to be 3.43 nM, the koff turned out to be 0.000402 s⁻¹ and the kon amounted to 117000 M⁻¹ s⁻¹.

B8: anti-CHI3L1 monoclonal antibody C28 (antibody, V domains shown)
VH: QQLKESGGDLVKPGASLTLTCTASGFSFSSGYYMCWVRQAPGKGLEWIACIGASSGLTNYASWAKGRFTISKTSSTTVTLRMTSLTAADTATYFCARVYLGGADYEQFNLWGPGTLVTVSS
VL: AQVLTQTPSSASEPVGGTVTIKCQAGESVSSRVAWYQQKPGQPPKLLIFDASALASGVSSRFTGSGSGTQFTLTISDLECADAATYYCQNYYGISGVAFGGGTEVVVK
notes: Rabbit mAb
As for B8, the binding result with recombinant human CHI3L1 [5] is reported as “binds”; with recombinant mouse CHI3L1 [6], “no binding”.

B9: anti-CHI3L1 monoclonal antibody C23 (antibody, V domains shown)
VH: QSVKESGGGLVQPGGSLTLSCKASGFDFSSYYMSWVRQAPGKGLEWIGIIYGGKGTTDYASWVNGRFTISSDNAQNTVDLQMNSLTAADTATYFCARDYVSSSGYYMDLWGPGTLVTVSS
VL: ALVMTQTPASVSAAVGGTVTIKCQASEDIYSLLAWYQQKPGQPPKLLIYDASDLASGVPSRFSGSGSGTEYTLTISDLECDDAATYYCQGGYYSGSPTDNSFGGGTKVVVE
notes: Rabbit mAb
Turning to B9, the figures for the binding result with recombinant human CHI3L1 [5] and in the experiment with recombinant mouse CHI3L1 [6] were “binds” and “no binding”, respectively.

B10: anti-CHI3L1 monoclonal antibody C56 (antibody, V domains shown)
VH: QEQLVESGGDLVKPGASLTLTCTASGFSFSSSYWICWVRQAPGKGLELIACIYPSSSGSTDYASWAKGRFTISKTSSTTVTLQMTSLTAADTATYFCARDIPYNIHGYTTGFNLWGPGTLVTVSS
VL: ALVMTQTPASVEAAVGGTVTIKCQASQSIGSNLAWYQQKPGQPPKLLIYSASTLASGVSSRFKGSRSGTEFTLTISDLECADAATYYCQFTYYGSSDVDVFGGGTKVVVE
notes: as for B2
On to B10, for which, in the experiment with recombinant human CHI3L1 [2], the Kd was below 0.001 nM, the koff is below 1e-07 s⁻¹ and the kon came to 189000 M⁻¹ s⁻¹. In the experiment with recombinant mouse CHI3L1 [3], the Kd is 7.92 nM, the koff amounted to 0.000592 s⁻¹ and the kon came to 74800 M⁻¹ s⁻¹.
